Numbering of substitutions follows the chain as printed. One block for each binder: values may come before it.
Experiments:
[1] = molecular target: T1, ROR2膜蛋白 (UniProt Q01974 34-943, limits assumed); assay: flow cytometry on T47D cells (ROR2 positive) against 231 cells (ROR2 negative), 10ug/ml
T1 construct: whole, on cells; Endogenous ROR2 of T47D cells and of cells from human patients; also called ROR2 on T47D cells; ROR2 on patient blood cancer cells and lymphoma PDX tumour cells

[2] = molecular target: T2, 内源性的ROR2 (293T细胞) (UniProt Q01974 34-943); assay: immunoprecipitation from 293T cell lysate, blot with Santa Cruz ROR2 antibody sc-374174
T2 construct: Whole endogenous protein in cell lysate, used for immunoprecipitation; also called endogenous ROR2 protein of ROR2-positive 293T cells
T2 sequence (Q01974 34-943 limits assumed): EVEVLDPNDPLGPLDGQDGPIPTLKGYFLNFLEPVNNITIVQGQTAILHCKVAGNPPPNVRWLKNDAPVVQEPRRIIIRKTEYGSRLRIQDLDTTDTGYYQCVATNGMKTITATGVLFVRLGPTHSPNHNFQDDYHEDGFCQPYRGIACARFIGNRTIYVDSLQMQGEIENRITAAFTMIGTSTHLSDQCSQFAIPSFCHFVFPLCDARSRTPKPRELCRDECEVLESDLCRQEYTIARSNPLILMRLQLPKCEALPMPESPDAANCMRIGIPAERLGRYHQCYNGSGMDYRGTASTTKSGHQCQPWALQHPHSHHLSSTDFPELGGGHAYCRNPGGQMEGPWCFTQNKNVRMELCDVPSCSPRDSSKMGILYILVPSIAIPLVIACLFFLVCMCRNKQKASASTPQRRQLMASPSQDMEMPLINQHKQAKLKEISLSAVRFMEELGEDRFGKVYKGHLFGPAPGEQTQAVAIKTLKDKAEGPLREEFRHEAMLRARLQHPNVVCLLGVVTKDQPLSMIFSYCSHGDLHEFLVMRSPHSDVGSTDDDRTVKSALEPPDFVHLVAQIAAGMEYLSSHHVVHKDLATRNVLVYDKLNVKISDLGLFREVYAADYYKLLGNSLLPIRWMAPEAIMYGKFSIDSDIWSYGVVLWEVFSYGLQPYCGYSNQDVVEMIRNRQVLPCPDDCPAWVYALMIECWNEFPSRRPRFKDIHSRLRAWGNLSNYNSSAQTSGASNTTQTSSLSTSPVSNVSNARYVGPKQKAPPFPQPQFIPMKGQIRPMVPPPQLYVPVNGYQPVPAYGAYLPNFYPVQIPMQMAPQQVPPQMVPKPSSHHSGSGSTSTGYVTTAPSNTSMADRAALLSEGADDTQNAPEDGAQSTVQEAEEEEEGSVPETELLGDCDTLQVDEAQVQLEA

[3] = molecular target: T3, 带有His标签的人源的ROR2胞外端 (human, UniProt Q01974 34-403); assay: immunoblot, lysate of 293T-ROR2-KO cells transfected with His-tagged human ROR2ex, 5ug/ml
T3 construct: extracellular domain; Denatured cell lysate in an immunoblot; it is put last only for want of a statement; also called human ROR2ex; humanROR2ex; not shown: His tag
T3 sequence (Q01974 34-403): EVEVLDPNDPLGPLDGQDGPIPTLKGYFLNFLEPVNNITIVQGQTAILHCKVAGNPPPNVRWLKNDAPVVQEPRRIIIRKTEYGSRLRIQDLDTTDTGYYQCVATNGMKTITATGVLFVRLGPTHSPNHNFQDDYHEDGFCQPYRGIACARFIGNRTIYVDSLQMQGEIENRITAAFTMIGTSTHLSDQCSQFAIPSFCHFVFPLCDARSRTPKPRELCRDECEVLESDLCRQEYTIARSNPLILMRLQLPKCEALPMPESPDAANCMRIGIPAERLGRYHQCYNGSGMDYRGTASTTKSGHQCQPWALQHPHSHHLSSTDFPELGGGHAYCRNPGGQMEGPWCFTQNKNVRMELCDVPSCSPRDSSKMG

T1 sequence (Q01974 34-943 limits assumed): as the sequence (Q01974 34-943 limits assumed) above

binding result [1]: binds
binding result [2]: binds
binding result [3]: binds
B1: B22嵌合抗体 (antibody, human IgG1, kappa, V domains shown)
VH: QVQLQQPGAALVKPGASVKLSCKASGYTFTNYWIQWMKQRPGQGLEWIGEINPSNGRTDYNEKFKNRATLTVDNSSTTAYMQLSSLTSEDSAVYYCANYRPGYWGQGTSVTVSS
VL: DIVMTQSQKFMSTSVGDRVSVTCKASQNVGTNVAWFQQKPGQSPKPLIYLASYRYSGVPDRFTGSGSGTDFTLTISNVQSEDLAEYFCQQYNSYPLTFGGGTNLEIKR
notes: Chimeric antibody expressed in 293F cells and purified on Protein A; also called B22抗体; SA120-2

binding result [1]: binds
binding result [2]: binds
binding result [3]: binds
B2: A12嵌合抗体 (antibody, human IgG1, kappa, V domains shown)
VH: QVQLQQSGPELVKPGASVRMSCKAAGYTITSYLMHWVKQRPGQDLEWIGYINPYNDGTKYNEKFKDKATLTSDKSSSTAYMELSSLTSEDSAVYYCARSDVYYGVRFAYWGQGTLVTVSA
VL: DIVLTQSPAIMSASPGEKVTMTCSASSSVSYMHWYQQKSGTSPKRWIYDTSKLASGVPARFSGSGSGTSYSLTISSMEAEDAAIYYCQQWSSNPPTFGAGTKLELKR
notes: Chimeric antibody expressed in 293F cells and purified on Protein A; also called A12抗体; ROR2-A12

binding result [1]: binds
binding result [2]: binds
binding result [3]: binds
B3: B30嵌合抗体 (antibody, human IgG1, kappa, V domains shown)
VH: B2 VH with I29F, M34I
VL: DIVLTQSPVIMSASPGEKVTMTCSASSSISYMYWYQQKPGSSPRLLIYDTSILASGVPVRFSGSGSGTSYSLTISRMEAEDAATYYCQQWSSYPFTFGSGTKLEIKR
notes: Chimeric antibody expressed in 293F cells and purified on Protein A; also called B30抗体; ROR2-B30

Source: patent CN111378040A (UNIV SHENZHEN, dated 2020)
